According to the DeepSol protein solubility set:

test: soluble on expression in E. coli; label from the status in PepcDB or PDB records

Sequence	soluble on expression in E. coli
GDSLTAQEALATLALSGDDDGPRQTRSYQVMNGIAVLPVSGTLVSRTRALQPYSGMTGYNGIIARLQQAASDPMVDGILLDMDTPGGMVAGAFDCADIIARVRDIKPVWALANDMNCSAGQLLASAASRRLVTQTARTGSIGVMMAHSNYGAALEKQGVEITLIYSGSHKVDGNPYSHLPDDVRETLQSRMDATRQMFAQKVSAYTGLSVQAVLDTEAAVYSGQEAIDAGLAD	not soluble
MSLSAFLPSLDTPVALLDMPRMQRNIQRMQQRMNELGVRLRPHVKTSKSLPVIQAQMAAGARGVTVSTLKEAEHCFAEGISDVFYAVAIAPGKLDQALKLRRIGCRLSILTDSVVAAQAIVAFGQQHDEQFQVWIEIDCDGHRSGLTVEDNALIEVARTLVEGGMQLRGVMTHAGSSYDLDTPEALQALAEQERLLCVSAAERIRQAGLPCPEVSIGSTPTALSAQGLAGVTEVRAGVYVFFDLVMHNIGVCGADEGHHHHHH	not soluble
MVADVKSPAGLAAFNTTLAEQAFATGFVLSGEDAQLFAALGSAPNASTYPNVARWYANVASYTDAERKTWASAGGSAPAAAAADGDDFDLFGSDDEEEDAEKAKIVEERLAAYAEKKAKKAGPIAKSSVILDVKPWDDETDLGEMEKLVRSIEMDGLVWGGAKLIPIGYGIKKLQIITVIEDLKVSVDDLIEKITGDFEDHVQSVDIVAFNKI	not soluble
MSPVSARFEPAALRPDLARIAGWIEPGSRVLDLGCGDGALLAYLRDHRQVRGAGVEIDDNYVIACVQRGVEVIQQNLEDGLALFDDQQFDTVVLSQTLQSMHRTEHILREMARVARHGVVSFPNFGYWPHGWSILRGRMPVTGQMPYQWYNTPNIHLCTLRDFEDLAGTLGLRILQRATFNEGREVRVFPSWRSTLALYRFAASLEHHHHHH	not soluble
SGVPVYICSSLKPDALAEAAEHQADGSFFVPRAKGLRTQKQWLAFYSESRGSVYVDEGAEHALSEQGKSLLMSGIAGIEGHFSRMDTVTVYSKATKQPLGKGRVLFGSAAAEDLLKSRKAKGVFIHRDDWISITPEIRLLLTEF	not soluble
MSYSKPLAYPSQKCVIKHMEVNSRFKLSHQSPSIRKIEKSTPLRIDSLTLKLDQCSVKINNILHTFRKEKLPKNMQLPQAFMCLMSKLFCGRRDPIQVKTLSIECKGSLQLPAGLCLKVSHLEILGSGVDKIADDLQPLLRGSKLQSITVNNDFNIHHPIFKTAHLLILKNPNKNLFRATAASNVMVKSTCQFLDLFDKIVELIRNWQSYGQKIGAIWNFSMRQEQFALLSLVQLRKLPGASYKGHEKFSESGRSIIIPIDNSAEVHAFVKKEQDDCNLNVIVRRRQF	soluble
MGSSHHHHHHSSGLVPRGSHMSKFSYLQNGKASTNGVPHANGHHQQHQNGHSNGVARNGGTATDTLPVAYQQKAATSGPFHMPRTEHVGYTYDTLQEIATYLLERTELRPKVGIICGSGLGTLAEQLTDVDSFDYETIPHFPVSTVAGHVGRLVFGYLAGVPVMCMQGRFHHYEGYPLAKCAMPVRVMHLIGCTHLIATNAAGGANPKYRVGDIMLIKDHINLMGFAGNNPLQGPNDERFGPRFFGMANTYDPKLNQQAKVIARQIGIENELREGVYTCLGGPNFETVAEVKMLSMLGVDAIGMSTVHEIITARHCGMTCFAFSLITNMCTMSYEEEEEHCHDSIVGVGKNREKTLGEFVSRIVKHIHYEAKK	soluble
MNSFVLMATVIREPELRFTKENQTPVCEFLVEFPGMRDDSPKESLKVVGWGNLANTIKETYHPGDRLIIEGRLGMNMIERQEGFKEKRAELTASRISLVDSGNGINPGELSSPPEPEAVDLSNTDDIPFLEHHHHHH	soluble
MGSDKIHHHHHHMALYEPFPNYIWNLSVSIAMESGGQIGEIVDMCQPIIDAASNGGDAGTPQFMKQWAAYGDKLIALAAEDEARGRMFSASNKLERASLYLLVAERMQGHGAPGRKESYAKARDAFDKSTALGKINRERVEIPLGKGTMPALYTRAPGNGPHPVVVYCNGLDSCKELLYWSRLPEALARRGISTICVDQPGSGEALRLQDLPVDPHSENWASKAVDWLEQQPDVDPKRIGMTGISLGGHFAPRAVAYEPRFASGAVWGANHNWREVQDKRLKREGENPVPHYWAHVMWAFGASDMDDFMVKSEDMNLNGHMDRIKVPFLVTHGADDRQISVSYADDLYDQLVNSPRREKVIFTAREGGVEHVGADNMAYGRDCIADWFAETLGGTTA	not soluble
MSTYEGRWKTVKVEIEDGIAFVILNRPERRNAMSPTLNREMIDVLETLEQDPAAGVLVLTGAGEAWTAGMDLKEYFREVDAGPEILQEKIRREASQWQWKLLRMYAKPTIAMVNGWCFGGGFAPLVACDLAICADEATFGLSEINWGIPPGNLVSKAMADTVGHRQSLYYIMTGKTFGGQKAAEMGLVNESVPLAQLREVTIELARNLLEKNPVVLRAAKHGFKRCRELTWEQNEDYLYAKLDQSRLLDTEGGREQGMKQFLDDKSIKPGLQAYKR	soluble
MGSDKIHHHHHHMPTPIKIGVSSCLLGEKVRYDGGHKHDRYITDTLGRFFEFVSVCPEAECGMPIPREAMRLEADGGEVRLVTSRSRVDKTEQMLDFCRRKVLELESEDLCGFIFKKDSPSSGLFNVKLYRRGMPTKAGRGLFADAVTKHFPLLPVEEEGRLHDMGLREHFIERVFAFRRWKDLLLGGKSLGRLVAFHADHKLLIMAHSPEVYREMGALVARGKELGCDDLFACYQELFMKALSLHATVRKNTNVLQHIAGYFKKQLTREEKAELQEVIGEYHRHLVPLIVPVTLLRHYVKKYGQEYLLKQVYLSPTPLELMLRNHV	not soluble
VPFDPGKIERAIAAAGQATGEFDPQQAQALAERVVERLPERACLDIERVQDLVERVLMEAGHYPTARAYVVYRERHGRLRRERKTLVDVAASMNEYLSREDWRVRANANQGYSLGGLILNVSGKVTANYWLDEVYDADIAAAHRDADLHIHDLDMLAGYCAGWSLRTLLNEGLNGVPGRVEAGPPKHLGSALGQMVNFLGTLQNEWAGAQAFSSFDTYLAPYVRKDRLDYASVRQALQEFIYNLNVPSRWGTQTPFTNLTFDWVCPDDLRDQVPRIGGEEMPFAYGELQAEMDLINRAYIEVMQAGDAHGRVFTFPIPTYNITHDFPWDSDNATRLFEMTARYGLPYFQNFLNSDMQPNQVRSMCCRLQLDVRELLKRGNGLFGSAEQTGSLGVVTINCARLGYRHRGDAAGLYRQLDHLLELAFASLELKRKVIQQHMDAGLYPYTRRYLGTLRNHFSTIGVNGLHEMVRNFSDDREGLHSEAGREMALALLDHVRARLVGFQEDSGHLYNLEATPAEGTTYRFAREDRKRYPRILQAGTPEAPYYTNSSQLPVGFTDDPFEALELQDALQCKYTGGTVLHLYMAERISSAEACKTLVRTALGRFRLPYLTVTPTFSICPRHGYLAGEHEFCPKCDEELLQRSTPKSCCGGC	not soluble
MGSDKIHHHHHHLDGDTQISIEALTSLSQITAEEWDACACPEDGRPLDPFTTYRFLDALEQSGSVGPGSGWQPRYLVARMDDQVIACAPMYAKGHSQGEYIFDHNWAHAYENAGGAYYPKLQIAAPFTPATGRRFLTRPGHDATGISALIQGAVQIAADNDLSSLHVTFCTEDEAIAGERIGLMRRWSQQFHWVNDGYADFDGFLASLSSRKRKNIRKERARAQAFGGEIVSLTGAQIKAEHWDAFWHFYQDTGARKWGTPYLTRAFFDIVHETLTDDMLLCLAIREGQPVAGALNFIGADTLYGRYWGCVEDHPCLHFELCYYQAIDYAIANGLSRVEAGAQGAHKLARGYLPVATHSLHWVRDAGFAEAIGRYLEAEREAVDEEIEVLTGYGPFKRA	not soluble
MIAVVIPAHNEARRLGRCLRAVLVAARQAQQAGLHVEVLVVLDRCSDGSAAVARRFGVHTLEVDAGNVGMARRVGAAHMVERGATWLACTDADSRVPAHWLLSQLACSAEVVCGTVHVEYWQPWQTAALRKLYQSRYQACEGHRHVHGANLGVCADAYERVGGFQPLAAHEDVQLVSDLQASGAQIVWTARHSVATSSRRDSRAREGFGDYLAGLQAQSLEHHHHHH	not soluble
MGSDKIHHHHHHLTEFTLMVAPNGARRGKADHPALPMTAPELAETALACHRLGAQALHLHVRDAEGVHSLDAGRYREAMSLVSEAVPTMGIQITTESAGLFDVGAQLACLEALRPAAASVSVREMARDKSLAARAYALCSEAGTQVQHILYTPECVEQLEAWYADGTVPDEMRDVILVLGQYATGQPARPAMLPPFLALIAPLDLRWSLCAFGPEEHACLLAAVEAGGQVRIGFENSLGPMGGPAWADNAASVEAFLNLTVARGHTLDPHQNMPGANLRELT	not soluble
EVIDLASPIEAHGETLSQVTFRRPTAQEARAIKALPYKIDKNEDVSLDLDVAAKYIAVCAGIPPSSVNQMDLCDINTLSWKVASFFMAAAS	not soluble
MTKLALFVRLEAKPGQEAALADFLASALPLANAESGTTAWFALKFGPSTFGVFDAFADEAGRQAHLNGQIAAALMANAATLLSSPPNIEKVELLAAKLPA	soluble
MPTSSTPPIVYETDLEPIYYQDCYCHKELVFCKNWKFGGEIFKYNSSGTNSSIRRVQFDCCVYKDQEIDEEMSEKVKTFKGTLDPRQVVQNNCFQHLSPLYSKFCEHYGHMIGFFWNSLKDTVMAYDIADGLFQETKDCGCCLFHKDVYLTNHIFFEKSHRDEYGQTIICMDINWHTKEHGKMSIFFNSQGFFGEYRWNRVAQCFKLMKQLDVKTTEYEVADRTDDEKNWSSFSYDAIHFLEQEYRKTKYISSTDCQKISEKIHLDEELIEKWFRARRATSKREANSNEDIFTSQYQQTKLTMKDGTEGYFLRKNHEYFKKIVVTVGFSDGSVKPCVWIEKISEYQIIDQETWRLKFENSRVMAIDAEAREQVHRQRKLNSNEKRKEEEAENEQEKLFKEMAELEIQNYRILPNSSDKRLEEHELKTQSSTLPKPCAHAQAQAHAQAQAHAQAHETNDNWPKLMTELFRALLQGQSLTQQHMQRLVHLRTQPDFNRRSYAGHELTAMEMEALKQLLNLLNGKEMPTGKKEEVEGSGLTISEAHGTVGSPMLIEKKEELEGSLEHQPTMANEEIDQNLKEETTTKPEYRKKLRMSKRKQNELLQKLWLKEKNTENTHAEKTNQEKKLTENAVQEQLEQMMKMIQEERRAADSKNLKLEQMVLEMKDKLDAQETRIKELEEVIKSDKNAKKGEQLTDPTEPQYTEAPNAEVGHKSNISSSIGNDVDLLEDDSGED	not soluble
MSLDEVECSADHIARPILILKETRRLPWATGYAEVINAGKSTHNEDQASCEVLTVKKKAGAVTSTPNRNSSKRRSSLPNGEGLQLKENSESEGVSCHYWSLFDGHAGSGAAVVASRLLQHHITEQLQDIVDILKNSAVLPPTCLGEEPENTPANSRTLTRAASLRGGVGAPGSPSTPPTRFFTEKKIPHECLVIGALESAFKEMDLQIERERSSYNISGGCTALIVICLLGKLYVANAGDSRAIIIRNGEIIPMSSEFTPETERQRLQYLAFMQPHLLGNEFTHLEFPRRVQRKELGKKMLYRDFNMTGWAYKTIEDEDLKFPLIYGEGKKARVMATIGVTRGLGDHDLKVHDSNIYIKPFLSSAPEVRIYDLSKYDHGSDDVLILATDGLWDVLSNEEVAEAITQFLPNCDPDDPHRYTLAAQDLVMRARGVLKDRGWRISNDRLGSGDDISVYVIPLIHGNKLSEGHHHHHH	soluble
MTTPNPLAKTKGAGTTFWMYTGNGDAFANPLSDTDWLRLAMVKDLQPGEMTADAEDDTYLDDEDADWKTTTQGQKSVGDTSATLACRPGDSGQKKLVQLFDSGEVCAFRIKYPNGTVDVFRGWLSSLGKTIASKDVMTRTVKISGVGRPYLAEEGTETVGVTGLTVAPASVSVKAGATTTLTFTVKPDGASDKAISVHSSDPQTASVTLSGLVATVKGVKQGSVSIVGMTSDGEFVAVAAVTVSAP	not soluble
MTMRTYKNPYPDSEDAVEIRFDHCREDIAKAAQEYWREMTEAELDDLQEEIMRALAVSEWQNIWLTSAAFITVLAYHFHD	not soluble
